Common to all, as to test: EMSA
For orientation: In EMSA bound probe runs differently from free probe, usually more slowly.

For one data set, the target named is T1, ME47/AA (designed (human Max/human E47), R12A;C29A).
T1 chain: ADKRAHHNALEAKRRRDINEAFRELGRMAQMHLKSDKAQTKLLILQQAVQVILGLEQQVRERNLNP

A further data set concerns the target T2, MEF/LA (designed (human Max/human E47/FosW), four FosW heptad Leu to Ala (see sequence)).
T2 chain: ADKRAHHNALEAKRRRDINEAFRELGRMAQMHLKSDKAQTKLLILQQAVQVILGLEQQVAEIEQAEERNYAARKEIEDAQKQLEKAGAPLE

Another data set addresses T3, MEF+1 (designed (human Max/human E47/FosW)).
T3 chain: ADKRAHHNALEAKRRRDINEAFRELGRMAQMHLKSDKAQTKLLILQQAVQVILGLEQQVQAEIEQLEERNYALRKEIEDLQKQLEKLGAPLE

Another data set deals with T4, MEF (designed (human Max/human E47/FosW)).
T4 chain: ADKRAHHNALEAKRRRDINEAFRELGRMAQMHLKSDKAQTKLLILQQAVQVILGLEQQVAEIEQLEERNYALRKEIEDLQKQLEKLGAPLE

Another data set addresses T5, MEF-1 (designed (human Max/human E47/FosW)).
T5 chain: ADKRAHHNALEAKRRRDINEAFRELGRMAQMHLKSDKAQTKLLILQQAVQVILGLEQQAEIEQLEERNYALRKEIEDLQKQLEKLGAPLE

3 molecules from article doi:10.1101/2020.02.21.959445 can be followed below.

B1: AT E-box (-7 AT E-box) (dsDNA)
DNA 1: GCGGCCGCTGCAGGAACCACGTGGTGGAATTCTTTACA
DNA 2: TGTAAAGAATTCCACCACGTGGTTCCTGCAGCGGCCGC
Regarding B1, in the data set with ME47/AA, binding was characterised by a dissociation constant (Kd) of 28.5 ± 2.3 nM.

B2: E-box (-7 GC E-box) (dsDNA)
DNA 1: GCGGCCGCTGCAGGAGCCACGTGCGGGAATTCTTTACA
DNA 2: TGTAAAGAATTCCCGCACGTGGCTCCTGCAGCGGCCGC
For the molecule B2, the dissociation constant Kd (as a rule, the concentration at which binding is half-saturated) turned out to be 27.7 ± 1.7 nM with ME47/AA; 10.7 ± 1.5 nM in the data set with MEF/LA; 30 ± 4 nM with MEF+1; 7.8 ± 0.6 nM with MEF; 59 ± 5 nM in the data set with MEF-1.

B3: NS DNA (nonspecific; TCCAAG in place of CACGTG) (dsDNA)
DNA 1: TGCAGGAGTTCCAAGGCGAAGGTT
DNA 2: AACCTTCGCCTTGGAACTCCTGCA
With B3, the equilibrium dissociation constant (Kd) with ME47/AA came out at 87.5 ± 5.1 nM; with MEF/LA, 44.5 ± 6 nM; in the data set with MEF+1 it was 65 ± 7 nM; in the data set with MEF it was 96 ± 22 nM; in the data set with MEF-1 it was 111 ± 18 nM.
